From PMC10164549
Where a chain is given by its changes, count along the chain named.

Tests used:
[1] = molecular target: Salmonella enterica serovar Montevideo DpdB, His6 tag removed (Salmonella enterica subsp. enterica serotype Montevideo); test: SEC
[2] = molecular target: Salmonella enterica serovar Montevideo DpdB, His6-tagged (Salmonella enterica subsp. enterica serotype Montevideo); test: SEC-SAXS + SEC-MALS
DpdA wild type = molecular target: T1, DpdA wild type (Salmonella enterica subsp. enterica …, UniProt P0DW33 1-416); test: EMSA
T1 sequence: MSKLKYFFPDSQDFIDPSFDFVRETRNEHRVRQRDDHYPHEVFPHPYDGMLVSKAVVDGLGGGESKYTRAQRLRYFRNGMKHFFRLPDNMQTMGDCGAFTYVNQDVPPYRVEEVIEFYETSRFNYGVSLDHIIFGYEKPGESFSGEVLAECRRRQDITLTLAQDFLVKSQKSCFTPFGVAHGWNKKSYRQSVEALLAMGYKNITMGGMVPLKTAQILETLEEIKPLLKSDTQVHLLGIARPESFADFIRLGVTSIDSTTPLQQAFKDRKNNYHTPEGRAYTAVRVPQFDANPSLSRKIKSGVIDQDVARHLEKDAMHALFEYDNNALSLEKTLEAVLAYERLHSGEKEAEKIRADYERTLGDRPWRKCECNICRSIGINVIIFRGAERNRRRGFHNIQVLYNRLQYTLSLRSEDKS

DpdA F265A = molecular target: T2, DpdA F265A (Salmonella enterica subsp. enterica …, UniProt P0DW33 1-416, F265A); test: EMSA
T2 sequence: T1 sequence with F265A

DpdA D95A = molecular target: T3, DpdA D95A (Salmonella enterica subsp. enterica …, UniProt P0DW33 1-416, D95A); test: SEC-SAXS/MALS
T3 sequence: T1 sequence with D95A

Salmonella enterica serovar Montevideo DpdB, His6 tag removed (enzyme)
stoichiometry N [1]: 2

Salmonella enterica serovar Montevideo DpdB, His6-tagged (enzyme)
stoichiometry N [2]: 2

B1: 28 bp DNA duplex spiked with 1% 6-FAM-labeled strand (dsDNA)
DNA 1: GGGGTTTTCGCCAGCTGGCGTTTTGGGG
DNA 2: CCCCAAAACGCCAGCTGGCGAAAACCCC
Kd (DpdA wild type): 3400 ± 200 nM | Kd (DpdA F265A): 2300 ± 100 nM

B2: 28 bp DNA duplex (28bpDuplexF/R) (dsDNA)
DNA 1: GGGGTTTTCGCCAGCTGGCGTTTTGGGG
DNA 2: CCCCAAAACGCCAGCTGGCGAAAACCCC
binding result (DpdA D95A): binds
